Assay results taken from patent publication US7067618B1, “Medicinal preparations” (Kyowa Hakko Kogyo Co., Ltd., priority 1998, dated 2006).

Key:
[1] = Release of lactose from insulin-lactose reaction products caused by pH lowering (HPLC); assay type: physicochemical; conditions: for Proportion by HPLC, Release of Lactose Caused by pH Lowering to 5.0: pH 5.0, 40° C.; for Proportion by HPLC, Release of Lactose Caused by pH Lowering to 5.9: pH 5.9, 40° C.; for Proportion by HPLC, Release of Lactose Caused by pH Lowering to 6.7: pH 6.7, 40° C.
Description: A solution of 0.2 mg of bovine pancreatic insulin (Wako Pure Chemical Industries, Itd.) in 1 mL of a 2 mmol/L aqueous solution of hydrochloric acid, a solution of 320 mg of anhydrous β-lactose (Nacalai Tesque, Inc.) in 2 mL of distilled water, and 1 mL of a 200 mmol/L phosphate buffer (pH 8.4) were mixed in a test tube to give a mixture having a pH of about 8.1. The test tube was put into a constant temperature water bath at 40° C. to cause reaction. The reaction mixture was sampled after 0, 5 and 24 hours, and analyzed for products obtained by the reaction of insulin with lactose by high performance liquid chromatography (HPLC) under the following conditions. • Column: YMC-Pack ODS-A or YMC-Pack ODS-AM, 6.0×150 mm • Mobile phase: 100 mmol/L phosphate buffer (pH 8.0) containing 0.001% Triton X-100: acetonitrile containing 0.001% Triton X-100=25 parts by volume: 9 parts by volume • Flow rate: 1.3 mL/minute • Detection wavelength: 210 nm
(§1) A solution of 0.2 mg of bovine pancreatic insulin (Wako Pure Chemical Industries, Itd.) in 1 mL of a 2 mmol/L aqueous solution of hydrochloric acid, a solution of 320 mg of anhydrous β-lactose (Nacalai Tesque, Inc.) in 2 mL of distilled water, and 1 mL of a 200 mmol/L phosphate buffer (pH 8.4) were mixed in a test tube. The mixture was subjected to reaction at 40° C. for 24 hours. To 3 mL of the resulting solution was added 0.5 mL of a 50 mmol/L aqueous solution of citric acid to adjust the pH to 6.7, and the mixture was subjected to reaction at 40° C. The samples collected from the reaction mixture 0 and 30 minutes after the start of the reaction were analyzed for products obtained by the reaction of insulin with lactose by HPLC in a manner similar to that in Example 1.
as §1, with “100” for “50”, “5.9,” for “6.7,”, “The” for “The samples collected from the”, “was intermittently” for “0 and 30 minutes after the start of the reaction were”
as §1, with “a 150” for “a 50”, “to 5.0,” for “to 6.7,”, “The” for “The samples collected from the”, “mixture was intermittently sampled” for “mixture 0”, “and” for “and 30 minutes after the start of the reaction were”

[2] = Release of sialyllactose from insulin-sialyllactose reaction products caused by pH lowering (HPLC); assay type: physicochemical; conditions: for Proportion by HPLC, Release of Sialyllactose Caused by pH Lowering to 5.3: pH 5.3, 40° C.; for Proportion by HPLC, Release of Sialyllactose Caused by pH Lowering to 6.4: pH 6.4, 40° C.
Description: Bovine pancreatic insulin (0.2 mg, Wako Pure Chemical Industries, Ltd.) was dissolved in 1 mL of a 1 mmol/L aqueous solution of hydrochloric acid. To about 25 mg of sialyllactose of 75% purity (a mixture of 3′-sialyllactose and 6′-sialyllactose, Boehringer Mannheim GmbH) was added 0.1 mL of a 600 mmol/L aqueous solution of disodium hydrogenphosphate to make a solution. The insulin solution (0.1 mL) and the sialyllactose solution (0.1 mL) were mixed in a test tube to give a mixture having a pH of about 7.8. The test tube was put into a constant temperature water bath at 40° C. to cause reaction and left for 3 days. The reaction mixture was sampled intermittently, followed by centrifugation at 3000 rpm for 20 minutes to remove insoluble materials. The samples collected 0, 1 and 3 days after the start of the reaction were analyzed for products obtained by the reaction of insulin with sialyllactose by HPLC under the following conditions. • Column: YMC-Pack ODS-AP, 4.6×150 mm • Mobile phase: 20 mmol/L phosphate buffer (pH 8.0) containing 0.001% Triton X-100: acetonitrile containing 0.001% Triton X-100=411 parts by volume: 140 parts by volume • Flow rate: 1.3 mL/minute • Detection wavelength: 220 nm
(§2) Bovine pancreatic insulin (0.2 mg, Wako Pure Chemical Industries, Ltd.) was dissolved in 1 mL of a 1 mmol/L aqueous solution of hydrochloric acid. To about 25 mg of sialyllactose of 75% purity (a mixture of 3′-sialyllactose and 6′-sialyllactose, Boehringer Mannheim GmbH) was added 0.1 mL of a 600 mmol/L aqueous solution of disodium hydrogenphosphate to make a solution. The insulin solution (0.1 mL) and the sialyllactose solution (0.1 mL) were mixed in a test tube to give a solution having a pH of about 7.8. This solution was subjected to reaction at 40° C. for 3 days and then centrifuged at 3000 rpm for 20 minutes. To 40 μL of the supernatant was added 0.04 mL of a 50 mmol/L-aqueous solution of citric acid to adjust the pH to 6.4, and the resulting solution was subjected to reaction at 40° C. The reaction mixture was intermittently sampled and analyzed for products obtained by the reaction of insulin with sialyllactose by HPLC in a manner similar to that in Example 2.
as §2, with “centrifuged 1” for “centrifuged”, “100 mmol/L aqueous” for “50 mmol/L-aqueous”, “5.3,” for “6.4,”

Substance: Insulin: bovine pancreatic insulin (Wako Pure Chemical Industries); free insulin to which no sugar is bound
- Proportion by HPLC, Release of Lactose Caused by pH Lowering to 5.0 ([1]; 0 minute): 21%
- Proportion by HPLC, Release of Lactose Caused by pH Lowering to 5.0 ([1]; 2 minutes): 60%
- Proportion by HPLC, Release of Lactose Caused by pH Lowering to 5.0 ([1]; 10 minutes): 83%
- Proportion by HPLC, Release of Lactose Caused by pH Lowering to 5.0 ([1]; 30 minutes): 93%
- Proportion by HPLC, Release of Lactose Caused by pH Lowering to 5.0 ([1]; 60 minutes): 95%
- Proportion by HPLC, Release of Lactose Caused by pH Lowering to 5.9 ([1]; 0 minute): 24%
- Proportion by HPLC, Release of Lactose Caused by pH Lowering to 5.9 ([1]; 2 minutes): 35%
- Proportion by HPLC, Release of Lactose Caused by pH Lowering to 5.9 ([1]; 10 minutes): 59%
- Proportion by HPLC, Release of Lactose Caused by pH Lowering to 5.9 ([1]; 30 minutes): 76%
- Proportion by HPLC, Release of Lactose Caused by pH Lowering to 5.9 ([1]; 60 minutes): 75%
- Proportion by HPLC, Release of Lactose Caused by pH Lowering to 6.7 ([1]; 0 minute): 25%
- Proportion by HPLC, Release of Lactose Caused by pH Lowering to 6.7 ([1]; 30 minutes): 45%
- Proportion by HPLC, Release of Sialyllactose Caused by pH Lowering to 5.3 ([2]; 0 minute): 31%
- Proportion by HPLC, Release of Sialyllactose Caused by pH Lowering to 5.3 ([2]; 10 minutes): 58%
- Proportion by HPLC, Release of Sialyllactose Caused by pH Lowering to 5.3 ([2]; 30 minutes): 80%
- Proportion by HPLC, Release of Sialyllactose Caused by pH Lowering to 6.4 ([2]; 0 minute): 31%
- Proportion by HPLC, Release of Sialyllactose Caused by pH Lowering to 6.4 ([2]; 10 minutes): 44%
- Proportion by HPLC, Release of Sialyllactose Caused by pH Lowering to 6.4 ([2]; 30 minutes): 50%
